Data: paper doi:10.1101/2024.06.02.597006 (bioRxiv, 2024)

Tests used:
[1] = target: T1, Pex5 (full-length yeast Pex5, 1-612), His-Sumo cleaved off (Saccharomyces cerevisiae, UniProt P35056 1-612); experiment: cryo-EM structure
T1 sequence (looked up): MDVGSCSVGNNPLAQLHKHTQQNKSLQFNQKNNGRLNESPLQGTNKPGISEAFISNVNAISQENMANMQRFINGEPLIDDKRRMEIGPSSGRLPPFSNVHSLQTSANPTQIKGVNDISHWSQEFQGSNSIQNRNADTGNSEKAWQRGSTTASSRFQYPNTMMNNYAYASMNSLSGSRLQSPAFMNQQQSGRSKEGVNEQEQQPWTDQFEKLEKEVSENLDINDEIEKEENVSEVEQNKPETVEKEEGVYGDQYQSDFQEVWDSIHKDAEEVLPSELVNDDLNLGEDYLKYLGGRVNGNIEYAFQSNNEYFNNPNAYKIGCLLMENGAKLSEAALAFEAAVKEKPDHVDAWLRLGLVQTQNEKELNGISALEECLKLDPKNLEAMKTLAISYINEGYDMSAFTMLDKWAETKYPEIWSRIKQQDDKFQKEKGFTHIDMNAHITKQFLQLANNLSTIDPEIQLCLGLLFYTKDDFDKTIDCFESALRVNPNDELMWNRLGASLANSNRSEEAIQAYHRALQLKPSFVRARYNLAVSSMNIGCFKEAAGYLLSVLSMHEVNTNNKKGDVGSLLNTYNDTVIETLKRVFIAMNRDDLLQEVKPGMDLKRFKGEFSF

[2] = target: the molecule itself; experiment: cryo-EM structure

B1: FLAG-Eci1 (yeast delta3, delta2-Enoyl-CoA Isomerase 1) (enzyme, Saccharomyces cerevisiae (yeast), UniProt Q05871 1-280, looked up)
chain: MSQEIRQNEKISYRIEGPFFIIHLMNPDNLNALEGEDYIYLGELLELADRNRDVYFTIIQSSGRFFSSGADFKGIAKAQGDDTNKYPSETSKWVSNFVARNVYVTDAFIKHSKVLICCLNGPAIGLSAALVALCDIVYSINDKVYLLYPFANLGLITEGGTTVSLPLKFGTNTTYECLMFNKPFKYDIMCENGFISKNFNMPSSNAEAFNAKVLEELREKVKGLYLPSCLGMKKLLKSNHIDAFNKANSVEVNESLKYWVDGEPLKRFRQLGSKQRKHRL
stoichiometry N [1]: 6 Eci1 per Pex5
stoichiometry N [2]: 6
